The target in the assay is FLAG-tagged C-terminally truncated RPS0A (residues 1–197) (S. cerevisiae) (UniProt P32905). The assay is described as follows: co-IP; WCE of H2880 wt cells overexpressing wt or C-terminally truncated RPS0A-FLAG; anti-FLAG M2 affinity matrix, 60 min, 4°C, buffer A200T (200 mM KCl, 20 mM Tris pH 8, 5 mM Mg acetate, 1 mM DTT, 0.2% Triton X-100); whole 40S subunits with their associated eIFs are recovered through the tagged RPS0A; Western blot, normalised to ASC1 (Figure 5B).
UniProt P32905, sequence (P32905 1-197): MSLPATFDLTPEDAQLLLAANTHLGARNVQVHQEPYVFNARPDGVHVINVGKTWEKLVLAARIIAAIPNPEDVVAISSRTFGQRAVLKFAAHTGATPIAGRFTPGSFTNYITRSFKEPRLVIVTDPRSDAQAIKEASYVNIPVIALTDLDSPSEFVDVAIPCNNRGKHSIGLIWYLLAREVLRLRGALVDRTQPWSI

Substance “eIF2 (from UniProt P32481 1-527) (complex)” returned a percent reduction of the co-purified amount against wt RPS0A-FLAG of 70%.

The record behind these values is publication PMC3390373.
